Assay results published in article PMC6265464.

B1: double-flap DNA (D181A/R192F crystal) (dsDNA)
DNA 1: CCTCTGCCTCAAGACGGG
DNA 2: GCCCGTCC
DNA 3: ACTTTGAGGCAGAG

Columns and labels:
[1] = biological target: full-length 3× Flag-tagged R192F hFEN1 (human) (UniProt P39748); assay: co-IP
[2] = biological target: hFEN1 D181A/R192F (1-333) (Homo sapiens, UniProt P39748 1-333, D181A;R192F); assay: X-ray crystallography
Chain of hFEN1 D181A/R192F (1-333) (P39748 1-333 D181A/R192F): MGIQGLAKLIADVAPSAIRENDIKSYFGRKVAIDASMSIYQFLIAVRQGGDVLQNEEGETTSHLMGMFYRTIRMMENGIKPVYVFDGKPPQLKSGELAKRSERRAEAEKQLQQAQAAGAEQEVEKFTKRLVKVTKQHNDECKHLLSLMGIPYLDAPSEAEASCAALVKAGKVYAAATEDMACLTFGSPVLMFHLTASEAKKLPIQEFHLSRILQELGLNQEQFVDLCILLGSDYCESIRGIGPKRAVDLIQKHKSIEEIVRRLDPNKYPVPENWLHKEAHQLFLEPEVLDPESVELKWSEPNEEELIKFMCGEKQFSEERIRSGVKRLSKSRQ

Chain of full-length 3× Flag-tagged R192F hFEN1 (human) (P39748 whole entry R192F): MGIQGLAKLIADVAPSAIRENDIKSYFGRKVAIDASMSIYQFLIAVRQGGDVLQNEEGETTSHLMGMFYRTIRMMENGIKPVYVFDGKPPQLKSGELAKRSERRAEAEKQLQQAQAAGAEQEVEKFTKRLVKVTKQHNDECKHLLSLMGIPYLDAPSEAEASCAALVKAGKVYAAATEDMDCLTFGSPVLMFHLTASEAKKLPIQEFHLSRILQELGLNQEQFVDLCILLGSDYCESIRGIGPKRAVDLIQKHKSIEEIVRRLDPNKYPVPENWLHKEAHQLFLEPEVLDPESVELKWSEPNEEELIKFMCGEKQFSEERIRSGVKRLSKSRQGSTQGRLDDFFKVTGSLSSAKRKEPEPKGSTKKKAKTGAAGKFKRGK

| Molecule | percent lower interaction than with wild-type hFEN1 [1] [%] | binding result [2] |
| --- | --- | --- |
| CDK2 (from UniProt P24941 1-298) (enzyme) | 40 | – |
| Cyclin E (from UniProt P24864 1-410) (natural protein) | 70 | – |
| B1 | – | binds |
